The data set concerns Escherichia coli TOP10. The data set can be described thus: shrunken log2 fold change of peptide-encoding DNA abundance (4.5 h post-induction vs induction); higher = less antimicrobial activity (less host growth inhibition). Conditions: time post-induction: 4.5 h; library: site-saturation at positions 5, 18, 19, 20.
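Further: peptides expressed intracellularly from a pBAD plasmid library in pooled LB shake-flask culture, induced with 0.3% L-arabinose, DNA abundance read by NGS, three biological replicates, DESeq2 with apeglm shrinkage.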

Turning to RRIRGRPPRLPRPRPRPVCVPRP, the “shrunken log2 fold change” value worked out at 0.891.

Turning to RRIRNRPPRLPRPRPRPLLYPRP, the “shrunken log2 fold change” value is -0.588.

In the case of RRIRTRPPRLPRPRPRPQFYPRP, the “shrunken log2 fold change” value was -0.791.

Turning to RRIRCRPPRLPRPRPRPAFDPRP, the “shrunken log2 fold change” value was 0.253.

On to RRIRERPPRLPRPRPRPNCDPRP, for which the “shrunken log2 fold change” value was -0.261.

On to RRIRHRPPRLPRPRPRPFWMPRP, for which the “shrunken log2 fold change” value was -0.0444.

With RRIRVRPPRLPRPRPRPPLQPRP, the “shrunken log2 fold change” value stood at 0.272.

RRIRERPPRLPRPRPRPWFEPRP: the “shrunken log2 fold change” value was -0.0941.

Take RRIRSRPPRLPRPRPRPLLTPRP: the “shrunken log2 fold change” value is 0.085.

In the case of RRIRARPPRLPRPRPRPLERPRP, the “shrunken log2 fold change” value was -0.0328.

Turning to RRIRSRPPRLPRPRPRPQPYPRP, the “shrunken log2 fold change” value is -0.159.

As to RRIRNRPPRLPRPRPRPGRFPRP, the “shrunken log2 fold change” value worked out at 0.327.

As to RRIRCRPPRLPRPRPRPYHVPRP, the “shrunken log2 fold change” value is -0.0591.

For RRIRRRPPRLPRPRPRPLRIPRP, the “shrunken log2 fold change” value stood at 0.724.

With RRIRGRPPRLPRPRPRPTAAPRP, the “shrunken log2 fold change” value is 1.97.

In the case of RRIRFRPPRLPRPRPRPHQYPRP, the “shrunken log2 fold change” value was -0.88.

Turning to RRIRPRPPRLPRPRPRPCIPPRP, the “shrunken log2 fold change” value was -0.556.

For RRIRERPPRLPRPRPRPLMVPRP, the “shrunken log2 fold change” value was -0.498.

As for RRIRLRPPRLPRPRPRPQSKPRP, the “shrunken log2 fold change” value is -0.224.

For RRIRNRPPRLPRPRPRPNSKPRP, the “shrunken log2 fold change” value is -0.331.

RRIRGRPPRLPRPRPRPKTKPRP: the “shrunken log2 fold change” value came to 0.0509.

With RRIRARPPRLPRPRPRPPMIPRP, the “shrunken log2 fold change” value was -0.172.

As for RRIRFRPPRLPRPRPRPQTAPRP, the “shrunken log2 fold change” value is -0.337.

As to RRIRPRPPRLPRPRPRPYHVPRP, the “shrunken log2 fold change” value was -0.199.

Consider RRIRNRPPRLPRPRPRPFWQPRP, for which the “shrunken log2 fold change” value came to 0.201.

With RRIRFRPPRLPRPRPRPFLAPRP, the “shrunken log2 fold change” value was -0.486.

For RRIRQRPPRLPRPRPRPIVLPRP, the “shrunken log2 fold change” value is -0.132.

Regarding RRIRFRPPRLPRPRPRPHVCPRP, the “shrunken log2 fold change” value is -0.0299.

Turning to RRIRARPPRLPRPRPRPKPLPRP, the “shrunken log2 fold change” value turned out to be 0.455.

For RRIRHRPPRLPRPRPRPGAYPRP, the “shrunken log2 fold change” value was -0.266.

Turning to RRIRTRPPRLPRPRPRPDIIPRP, the “shrunken log2 fold change” value is -0.232.

On to RRIRWRPPRLPRPRPRPMDCPRP, for which the “shrunken log2 fold change” value is -0.0839.

With RRIRKRPPRLPRPRPRPPMEPRP, the “shrunken log2 fold change” value amounted to 0.135.

Turning to RRIRARPPRLPRPRPRPQIWPRP, the “shrunken log2 fold change” value was 0.166.

Turning to RRIRQRPPRLPRPRPRPRWYPRP, the “shrunken log2 fold change” value was -0.172.

As to RRIRIRPPRLPRPRPRPHVHPRP, the “shrunken log2 fold change” value is -0.165.

With RRIRARPPRLPRPRPRPFEWPRP, the “shrunken log2 fold change” value was -0.0571.

For RRIRMRPPRLPRPRPRPLRSPRP, the “shrunken log2 fold change” value is 2.47.

For the sequence RRIRERPPRLPRPRPRPFYKPRP, the “shrunken log2 fold change” value stood at 0.187.

Regarding RRIRVRPPRLPRPRPRPNCMPRP, the “shrunken log2 fold change” value is -0.222.

As to RRIRYRPPRLPRPRPRPCIWPRP, the “shrunken log2 fold change” value was -0.176.

For the sequence RRIRNRPPRLPRPRPRPWSRPRP, the “shrunken log2 fold change” value stood at 0.14.

In the case of RRIRKRPPRLPRPRPRPRAQPRP, the “shrunken log2 fold change” value is 0.7.

As for RRIRYRPPRLPRPRPRPNTFPRP, the “shrunken log2 fold change” value was -1.24.

In the case of RRIRARPPRLPRPRPRPMQTPRP, the “shrunken log2 fold change” value came out at 0.114.

In the case of RRIRARPPRLPRPRPRPLDLPRP, the “shrunken log2 fold change” value was 0.227.

In the case of RRIRWRPPRLPRPRPRPGQFPRP, the “shrunken log2 fold change” value was 0.061.

Take RRIRNRPPRLPRPRPRPFGGPRP: the “shrunken log2 fold change” value is -0.133.

RRIRIRPPRLPRPRPRPRTMPRP: the “shrunken log2 fold change” value was -0.377.

In the case of RRIRGRPPRLPRPRPRPMNPPRP, the “shrunken log2 fold change” value came out at 0.217.

Take RRIRARPPRLPRPRPRPKWTPRP: the “shrunken log2 fold change” value was -0.00127.

For RRIRYRPPRLPRPRPRPSRMPRP, the “shrunken log2 fold change” value was -0.303.

With RRIRNRPPRLPRPRPRPAAYPRP, the “shrunken log2 fold change” value was -0.0872.

On to RRIRMRPPRLPRPRPRPNKDPRP, for which the “shrunken log2 fold change” value is 0.0301.

For RRIRFRPPRLPRPRPRPYVEPRP, the “shrunken log2 fold change” value was -0.315.

Consider RRIRKRPPRLPRPRPRPISQPRP, for which the “shrunken log2 fold change” value came to 0.113.

On to RRIRKRPPRLPRPRPRPSQDPRP, for which the “shrunken log2 fold change” value was determined as 0.107.

Regarding RRIRARPPRLPRPRPRPAIIPRP, the “shrunken log2 fold change” value was found to be 0.101.

Turning to RRIRVRPPRLPRPRPRPKNLPRP, the “shrunken log2 fold change” value was determined as 0.0256.

Regarding RRIRVRPPRLPRPRPRPEQHPRP, the “shrunken log2 fold change” value turned out to be 0.262.

As to RRIRMRPPRLPRPRPRPRHLPRP, the “shrunken log2 fold change” value is -0.0764.

On to RRIRPRPPRLPRPRPRPNCFPRP, for which the “shrunken log2 fold change” value was -0.0261.

As to RRIRQRPPRLPRPRPRPKPLPRP, the “shrunken log2 fold change” value was 0.176.

RRIRPRPPRLPRPRPRPGAKPRP: the “shrunken log2 fold change” value came out at 0.265.

For the sequence RRIRDRPPRLPRPRPRPVDGPRP, the “shrunken log2 fold change” value came to 0.0169.

Regarding RRIRCRPPRLPRPRPRPPKLPRP, the “shrunken log2 fold change” value was 0.0685.

Consider RRIRGRPPRLPRPRPRPCMTPRP, for which the “shrunken log2 fold change” value was 2.89.

With RRIRNRPPRLPRPRPRPLTIPRP, the “shrunken log2 fold change” value was -0.389.

For RRIRPRPPRLPRPRPRPSWIPRP, the “shrunken log2 fold change” value is -0.179.

Take RRIRTRPPRLPRPRPRPRRHPRP: the “shrunken log2 fold change” value is 0.0424.

In the case of RRIRVRPPRLPRPRPRPRWWPRP, the “shrunken log2 fold change” value turned out to be 0.0125.

For RRIRDRPPRLPRPRPRPANKPRP, the “shrunken log2 fold change” value is -0.261.

As for RRIRWRPPRLPRPRPRPPAMPRP, the “shrunken log2 fold change” value is 1.57.

Take RRIRVRPPRLPRPRPRPLNLPRP: the “shrunken log2 fold change” value was -0.304.

Consider RRIRDRPPRLPRPRPRPQCVPRP, for which the “shrunken log2 fold change” value worked out at 0.0602.

As for RRIRHRPPRLPRPRPRPTCGPRP, the “shrunken log2 fold change” value is 0.0685.

As for RRIRYRPPRLPRPRPRPAYHPRP, the “shrunken log2 fold change” value is -0.321.

RRIRYRPPRLPRPRPRPYIFPRP: the “shrunken log2 fold change” value is -0.322.

In the case of RRIRCRPPRLPRPRPRPKDAPRP, the “shrunken log2 fold change” value was 0.183.

Take RRIRHRPPRLPRPRPRPPEDPRP: the “shrunken log2 fold change” value worked out at 0.314.

On to RRIRHRPPRLPRPRPRPDCRPRP, for which the “shrunken log2 fold change” value is -0.0597.

With RRIRERPPRLPRPRPRPVMWPRP, the “shrunken log2 fold change” value turned out to be 0.0878.

For the sequence RRIRHRPPRLPRPRPRPLDNPRP, the “shrunken log2 fold change” value was -0.515.

For the sequence RRIRNRPPRLPRPRPRPYHVPRP, the “shrunken log2 fold change” value was -0.116.

As to RRIRRRPPRLPRPRPRPPEAPRP, the “shrunken log2 fold change” value was found to be 0.493.

Regarding RRIRARPPRLPRPRPRPLCFPRP, the “shrunken log2 fold change” value worked out at 0.195.

Consider RRIRTRPPRLPRPRPRPPHPPRP, for which the “shrunken log2 fold change” value amounted to 0.255.

As for RRIRNRPPRLPRPRPRPFNDPRP, the “shrunken log2 fold change” value is -0.0288.

For RRIRGRPPRLPRPRPRPYAVPRP, the “shrunken log2 fold change” value was determined as 2.53.

Regarding RRIRRRPPRLPRPRPRPYSPPRP, the “shrunken log2 fold change” value stood at 0.00204.

As to RRIRNRPPRLPRPRPRPFWLPRP, the “shrunken log2 fold change” value was -0.189.

Values taken from the supplement of paper PMC9112550, “Optimization of the antimicrobial peptide Bac7 by deep mutational scanning” (BMC Biology, 2022).
